Data from patent US20100196361A1, “Method of inhibition of vascular development using an antibody” (DYAX CORP., priority 2003, published 2010).
Substitutions are numbered along the chain they refer to. Values belong to the molecule of their own block, whether it stands above or below them.

Key:
[1] = target: Tie1 (Homo sapiens, UniProt P35590); assay: Competition with E3 for binding to Tie1
[2] = target: T1, human Tie1-Fc fusion protein (Homo sapiens, UniProt P35590); assay: BIAcore 3000 affinity analysis of Fab and IgG; format: binding
T1 construct: selected against the Tie1 extracellular domain fused to human Fc or to a histidine purification tag
T1 sequence (P35590 22-759 limits assumed): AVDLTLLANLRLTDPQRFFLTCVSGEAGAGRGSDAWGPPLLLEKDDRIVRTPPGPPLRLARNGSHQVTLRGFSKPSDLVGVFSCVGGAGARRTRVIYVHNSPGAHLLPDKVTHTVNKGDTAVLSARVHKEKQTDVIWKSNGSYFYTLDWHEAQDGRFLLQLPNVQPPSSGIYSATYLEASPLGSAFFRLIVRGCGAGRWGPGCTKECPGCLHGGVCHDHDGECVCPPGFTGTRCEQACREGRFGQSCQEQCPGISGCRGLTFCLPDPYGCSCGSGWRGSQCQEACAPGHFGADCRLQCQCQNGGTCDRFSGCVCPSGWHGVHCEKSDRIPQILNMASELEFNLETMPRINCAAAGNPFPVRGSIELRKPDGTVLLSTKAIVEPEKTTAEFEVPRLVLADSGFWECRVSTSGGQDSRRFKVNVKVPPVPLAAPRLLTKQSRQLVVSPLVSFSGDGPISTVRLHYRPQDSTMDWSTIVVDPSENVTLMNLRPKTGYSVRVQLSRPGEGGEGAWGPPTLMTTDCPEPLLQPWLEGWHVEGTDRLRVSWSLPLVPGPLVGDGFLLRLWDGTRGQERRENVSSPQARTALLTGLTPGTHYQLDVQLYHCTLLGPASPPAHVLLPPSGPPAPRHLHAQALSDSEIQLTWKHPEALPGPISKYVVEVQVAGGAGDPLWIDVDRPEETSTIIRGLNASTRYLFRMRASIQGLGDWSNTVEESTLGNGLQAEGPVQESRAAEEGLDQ
Experimental: Affinity analysis of the Fab and IgGs was performed using surface plasmon resonance using a BIAcore 3000 instrument. For this analysis both dimeric (Tie1-Fc fusion protein) and monomeric (Tie1-HIS) versions of the extracellular domain of the Tie1 were used. The sensor chips used in these experiments were CM5 (dextran-coated) which allow immobilization of proteins to the chip via standard amine coupling chemistries. The concentration of flowed antibody was determined using a surface plasmon resonance based method. Using a high-density protein A sensor chip, under mass transport limited conditions, the response signal is dependent only on the concentration of the antibody in the sample under test. This approach allows a precise determination of the antibody concentration, a parameter important for accurate determination of the KD.
470 RUs of Tie1 HIS protein were coated on a CM5 sensor chip and 5, 20, 100, and 500 nM of the Fab flowed over the chip at four different flow rates ([…]), rates in which the system is not mass transport limited. Kinetic data was typically determined using a range of analyte concentrations and three different chip coating densities. The data from the lowest coating density that gave a good signal was typically chosen, this was often in a range from 50-100 RUs. Using such low coating densities allowed the sensor curves to be fit using BIAEVALUATION™ 3.0 software to a 1:1 model, often even when using a bivalent analyte (IgG or Tie1-Fc fusion protein). For bivalent analytes, when fit to a 1:1 model was not possible, the curves were fit using a 2:1 model.
The anti-Tie1 antibodies described here bind to both human and mouse Tie1 molecules. The binding of the anti-Tie1 Fab to mouse Tie1-Fc fusion protein was compared with the binding of the anti-Tie1 Fab to human Tie1-Fc fusion protein. In both of these experiments the Tie1-Fc fusion protein was immobilized on the sensor chip and the anti Tie-1 Fab served as the analyte. Under these experimental conditions the anti-Tie1 Fab has very similar KD (˜3 nM) values for both the human and mouse Tie1-Fc fusion proteins (Table 9). Under conditions that are likely to mimic those used in the animal efficacy experiments, i.e. Tie1-Fc immobilized to the CM5 sensor chip and anti-Tie1 used as the analyte, the measured KD was 0.2 nM.

[3] = target: T2, human Tie1 Fc (Homo sapiens, UniProt P35590); assay: BIAcore, Fab over Tie1/Fc coated on CM5 chip; format: binding; conditions: Fab analyte
T2 construct: selected against the Tie1 extracellular domain fused to human Fc or to a histidine purification tag
T2 sequence (P35590 22-759 limits assumed): T1 sequence (P35590 22-759 limits assumed)
Source text: To evaluate if the binding behaviour had been affected in any way by the conversion of the somatic mutations back to germline residues, the parental and the germlined E3b antibodies were produced and tested in Biacore as Fab fragments. Here, by contrast to what was done for the IgGs (see Example 28), and in order to measure a monovalent interaction, the Fabs were run over the antigen directly coated onto the surface.
Recombinant human Tie1/Fc was coated on a CM5 chip. The surface of the chip was first activated with a 7-minute pulse of 0.05 M NHS/0.2 M EDC, then Tie1/Fc (2 μg/ml in 10 mM sodium acetate, pH 4.0) was run over the chip surface until 750 RUs were coated on the surface. All flow cells were subsequently deactivated with a 7-minute pulse of 1 M ethanolamine hydrochloride, pH 8.5. All further experiments were performed in HBS buffer.
The parental and the germlined E3b Fabs were prepared. A series of dilution (50, 25, 12.5, 6.25 and 3.125 nM) was prepared in HBS buffer. Samples were injected at 30 μl/min for 5.3 minutes using the KINJECT™ program. This was followed by a 10-minute dissociation phase, and the remaining Fab was stripped from the surface with a single 18-sec injection of 50 mM NaOH/1 M NaCl.
Sensorgrams were analyzed using the simultaneous ka/kd fitting program from the BIAEVALUATION™ software 3.1 assuming a 1:1 model.

Chain of Tie1 (P35590 22-1138): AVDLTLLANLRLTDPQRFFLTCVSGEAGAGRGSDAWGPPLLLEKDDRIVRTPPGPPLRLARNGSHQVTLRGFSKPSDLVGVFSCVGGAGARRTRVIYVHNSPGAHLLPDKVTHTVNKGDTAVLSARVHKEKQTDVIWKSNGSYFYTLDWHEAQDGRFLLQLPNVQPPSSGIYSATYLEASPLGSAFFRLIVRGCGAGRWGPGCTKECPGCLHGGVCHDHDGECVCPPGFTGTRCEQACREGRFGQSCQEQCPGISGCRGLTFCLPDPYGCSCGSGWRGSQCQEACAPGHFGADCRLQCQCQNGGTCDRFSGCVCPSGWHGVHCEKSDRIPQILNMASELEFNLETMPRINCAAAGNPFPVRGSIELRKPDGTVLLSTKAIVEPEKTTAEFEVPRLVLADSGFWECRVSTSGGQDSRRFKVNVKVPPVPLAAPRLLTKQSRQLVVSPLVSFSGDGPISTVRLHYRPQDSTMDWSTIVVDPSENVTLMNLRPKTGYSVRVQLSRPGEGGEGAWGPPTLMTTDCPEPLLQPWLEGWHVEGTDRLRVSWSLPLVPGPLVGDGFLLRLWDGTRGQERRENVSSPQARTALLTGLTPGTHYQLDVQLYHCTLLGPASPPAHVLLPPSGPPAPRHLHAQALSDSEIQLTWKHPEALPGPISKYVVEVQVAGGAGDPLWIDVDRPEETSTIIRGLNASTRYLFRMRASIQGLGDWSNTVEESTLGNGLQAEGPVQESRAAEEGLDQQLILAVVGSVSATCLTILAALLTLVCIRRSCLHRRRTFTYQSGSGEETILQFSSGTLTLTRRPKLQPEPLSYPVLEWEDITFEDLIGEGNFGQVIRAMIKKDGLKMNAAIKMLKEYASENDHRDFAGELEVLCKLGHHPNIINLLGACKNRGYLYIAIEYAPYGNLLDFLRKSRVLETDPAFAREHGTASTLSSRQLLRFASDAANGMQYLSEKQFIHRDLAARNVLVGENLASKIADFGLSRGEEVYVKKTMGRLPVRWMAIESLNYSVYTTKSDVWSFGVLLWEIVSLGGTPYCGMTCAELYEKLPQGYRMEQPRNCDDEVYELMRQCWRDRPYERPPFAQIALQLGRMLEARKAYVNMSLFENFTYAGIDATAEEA

B1: M0055E10: Tie1-binding antibody; LC SEQ ID NO:492, HC SEQ ID NO:494 (antibody, V domains shown)
VH: EVQLLESGGGLVQPGGSLRLSCAASGFTFSAYPMFWVRQAPGKGLEWVSVISPSGGQTSYADSVKGRFTISRDNSKNTLYLQMNSLRAEDTAVYYCAKSFSGLAALDFWGQGTLVTVSS
VL: QDIQMTQSPATLSLSPGERATLSCRASQSVRTYLGWYQQKHGQAPRLLIYDASNRATGIPARFSGSGSGTDFTLTISSLEPEDFAVYYCQQRSNWPLTFGGGTKVEIK
modifications: Antibody
competition with E3 for binding to Tie1 [1]: competes with E3 for binding to Tie1

B4: M0058F03: Tie1-binding antibody; LC SEQ ID NO:604, HC SEQ ID NO:606 (antibody, V domains shown)
VH: EVQLLESGGGLVQPGGSLRLSCAASGFTFSDYGMAWVRQAPGKGLEWVSVISPSGGQTAYADSVKGRFTISRDNSKNTLYLQMNSLRAEDTAVYYCATVRWFGAFDYWGQGTLVTVSS
VL: QDIQMTQSPSTLSASVGDRVTITCRASQGISNYLAWYQQKPGKVPKLLIYGASNLQSGVSSRFSGSGSATDFTLTISSLQPEDFATYYCQQFNSYPLTFGGGTKVEIK
modifications: Antibody
competition with E3 for binding to Tie1 [1]: competes with E3 for binding to Tie1

B5: E3b Fab: Fab with germlined HC and germlined LC sequence of E3 (antibody, V domains shown)
VH: EVQLLESGGGLVQPGGSLRLSCAASGFTFSMYGMVWVRQAPGKGLEWVSVISPSGGNTGYADSVKGRFTISRDNSKNTLYLQMNSLRAEDTAVYYCARAPRGYSYGYYYWGQGTLVTVSS
VL: DIQMTQSPSSLSASVGDRVTITCRASQGIGHYLAWYQQKPGKVPKLLIYTASTLQSGVPSRFSGSGSGTDFTLTISSLQPEDVATYYCQQFNSYPHTFGQGTRLEIK
Kon [2]: 9300 M⁻¹ s⁻¹
koff [2]: 4.41e-05 s⁻¹
koff ([3]; Human Tie1 Fc coated on CM5): 0.00101 s⁻¹
kon ([3]; Human Tie1 Fc coated on CM5, 750 RU): 136000 M⁻¹ s⁻¹

The next lines start with the values.

competition with E3 for binding to Tie1 [1]: competes with E3 for binding to Tie1
B2: M0060H01: Tie1-binding antibody; LC SEQ ID NO:628, HC SEQ ID NO:630 (antibody, V domains shown)
VH: EVQLLESGGGLVQPGGSLRLSCAASGFTFSYYPMVWVRQAPGKGLEWVSVIVPSGGFTAYADSVKGRFTISRDNSKNTLYLQMNSLRAEDTAMYYCARKRPGNAFDIWGQGTMVTVSS
VL: B1 VL with R31S, T32S, G35A, H41P, L97V, G101Q, K104R, V105L
modifications: Antibody

competition with E3 for binding to Tie1 [1]: competes with E3 for binding to Tie1
B3: M0054H10: Tie1-binding antibody; LC SEQ ID NO:448, HC SEQ ID NO:450 (antibody, V domains shown)
VH: EVQLLESGGGLVQPGGSLRLSCAASGFTFSQYPMIWVRQAPGKGLEWVSVISPSGGHTSYADSVKGRFTISRDNSKNTLYLQMNSLRAEDTAVYYCARIQYYGGAFDIWGQGKMVTVSS
VL: B1 VL with R31S, T32I, G35A, H41P, G58D, N94S, L97I, G101L, K104R, V105L
modifications: Antibody
